Assay: soluble on expression in E. coli; label from the status in PepcDB or PDB records

Row | Sequence | soluble on expression in E. coli
1 | AAAKPADKALQAQLPEMALPREAAPRLDGLAAVLPQIHPAEAGKPAESFSLALPPSQPESWSGKLQAALGERLQAMPAQNMDRATLRLDPPSLGTLEISLRHQAGALTVELTASHGEVVRQLQGIGEALRQDLGGRQYTQVAVEVREGM | not soluble
2 | AAGTVFTTVEDLGSKILLTCSLNDSATEVTGHRWLKGGVVLKEDALPGQKTEFKVDSDDQWGEYSCVFLPEPMGTANIQLHGPPRVKAVKSSEHINEGETAMLVCKSESVPPVTDWAWYKITDSEDKALMNGSESRFFVSSSQGRSELHIENLNMEADPGQYRCNGTSSKGSDQAIITLRVRSH | soluble
3 | AASDSAQLKSAREDIKELLKTKFCHPIMVRLGWHDAGTYNKNIEEWPQRGGANGSLRFDVELKHGANAGLVNALNLLKPIKDKYSGVTYADLFQLASATAIEEAGGPKIPMKYGRVDVTEPEQCPEEGRLPDAGPPSPAQHLRDVFYRMGLNDKEIVALSGAHTLGRSRPDRSGWGKPETKYTKDGPGAPGGQSWTAQWLKFDNSYFKDIKERRDEDLLVLPTDAALFEDPSFKVYAEKYAADPEAFFKDYAEAHAKLSNLGAKFGPAEGFSLEGSPAGAAPEKFVAAKYSTGKD | soluble
4 | AATTGYDAVDDLLHYHERGNGIQINGKDSFSNEQAGLFITRENQTWNGYKVFGQPVKLTFSFPDYKFSSTNVAGDTGLSKFSAEQQQQAKLSLQSWADVANITFTEVAAGQKANITFGNYSQDRPGHYDYGTQAYAFLPNTIWQGQDLGGQTWYNVNQSNVKHPATEDYGRQTFTHEIGHALGLSHPGDYNAGEGNPTYNDVTYAEDTRQFSLMSYWSETNTGGDNGGHYAAAPLLDDIAAIQHLYGANLSTRTGDTVYGFNSNTGRDFLSTTSNSQKVIFAAWDAGGNDTFDFSGYTANQRINLNEKSFSDVGGLKGNVSIAAGVTIENAIGGSGNDVIVGNAANNVLKGGAGNDVLFGGGGADELWGGAGKDIFVFSAASDSAPGASDWIRDFQKGIDKIDLSFFNKEANSSDFIHFVDHFSGTAGEALLSYNASSNVTDLSVNIGGHQAPDFLVKIVGQVDVATDFIV | soluble
5 | ADNEEDVEAEEEYTELTDISGVGPSKAESLREAGFESVEDVRGADQSALADVSGIGNALAARIKADVGGLEVESETEAEVEEEGGEEAPDEDVETELQARGLTEKTPDLSDEDARLLTQRHRVGKPQFNRQDHHKKKRVSTSWRKPRGQLSKQRRGIKGKGDTVEAGFRSPTAVRGKHPSGFEEVRVHNVDDLEGVDGDTEAVRIASKVGARKRERIEEEAEDAGIRVLNPTYVEVEVSE | soluble
6 | ADPALADVCRTKLPSQAQDTLALIAKNGPYPYNRDGVVFENRESRLPKKGNGYYHEFTVVTPGSNDRGTRRVVTGGYGEQYWSPDHYATFQEIDPRC | soluble
7 | AEALAAGQRRIAKGERDFKDRVGFLRGRARPASTLITRFIADHQGHREGPDGLRWGVESICTQLTELGVPIAPSTYYDHINREPSRRELRDGELKEHISRVHAANYGVYGARKVWLTLNREGIEVARCTVERLMTKLGLSGTTRGKARRTTIADPATARPADLVQRRFGPPAPNRLWVADLTYVSTWAGFAYVAFVTDAYARRILGWRVASTMATSMVLDAIEQAIWTRQQEGVLDLKDVIHHTDRGSQYTSIRFSERLAEAGIQPSVGAVGSSYDNALAETINGLYKTELIKPGKPWRSIEDVELATARWVDWFNHRRLYQYCGDVPPVELEAAYYAQRQRPAAG | soluble
8 | AEEELETPTPTQRGEAESRGDGLVDVMWEYKWENTGDAELYGPFTSAQMQTWVSEGYFPDGVYCRKLDPPGGQFYNSKRIDFDLYT | soluble
9 | AEEHEHHHHDEEHAHHHHHEGSEVDEYGISTFVYYRRPAFDIHKFDRFVSTQWSRNIIRAKGVCYFSNNRDMSFLFEQAGVQKKLKEAGLWYATAPEEELIEVIRQEPGLLRDWDDKYGDRMQKIVFIGRHLDKEELIRELDECLE | not soluble
10 | AEFKHVFVCVQDRPPGHPQGSCAQRGSREVFQAFMEKIQTDPQLFMTTVITPTGSMNACMMGPVVVVYPDGVWYGQVKPEDVDEIVEKHLKGGEPVERLVISKGKPPGMF | soluble
11 | AEKRIGLMLFGKGNIGSRWLELFAREQTTLSARTGFEFILAGVVDSKRSLLNYDGLDASRALAFFNDEAVEQDEESLFLWMRAHPYDDLVVLDVTASEQLADQYLDFASHGFHVISANKLAGASSSDKYRQIHDAFEKTGRHWLYNATVGAGLPVNHTVRDLIDSGDTILGLSGIFSGTLSWLFLQ | not soluble
12 | AELTALESLIEMGFPRGRAEKALALTGNQGIEAAMDWLMEHEDDPDVDEPL | soluble
13 | AEVRPPFTYASLIRQAILESPEKQLTLNEIYNWFTRMFPYFRRNAATWKNAVRHNLSLHKYFVRVENVKGAVWTVDEVEFQKRRPQK | soluble
14 | AFTFLHTADLHLDAPLRAVALRDPELAAEIGVASRTAFSRIVDLCLAEAVAFLVIAGDLWDGTYSSTKTPRFLKQELLRLEAAGIGCYILRGNHDALARQTGELEAPANTTVFGARPSTVELSIDGQPVALHGLSFREPHAPESLLPRYPAPKPGAFNLGLMHTSLNGSPGHDPYAPCSLAELEAHGYDYWALGHIHRRFVHRGRATVVMPGTPQGRDIGEAGAASVTLVQVGDDGAVTLEERSVA | not soluble
15 | AGFMVPTTNTAGWGRAMAGGSLFPNDPSAAFNNPAAMAFIDKRIAQLTVNYADIDIKYNGDAYDYQGNPMTGGYQDGPGTPELGTNDGGQAGFGAWLPTGFLVVPINDRFAFGLSQVVPMGMRSTWDPNWKGRDFAVDTKIETIGLTGSLSFKVNDNFSLGAGVIIQRTSGFVSQNLDLYASAANSPGMGGIPFPASNSSALMRVKVDNTSPGFFAGAVWKPTDRDTLGFAYHAKIRNKLKGHYNLYDHDGGLTEGAIEGGTPGLAYPGLDLRMGASASARLDIPAYASLDWVHQFNDRLSLGASATWTEWSSFQDLTLKSHGNTIVSIPYTYRNTWTLAVGGDYKVTDQWTMRAGVAYDQTPTHNATRDPRIPDGDRYFASLGAGYRFQSMPELSIDAAYSRQFVKEVPLKTVNQDRLGGGRLDGRATSKGQVFSLSATYDFHHHHHHHH | soluble
16 | AGFQLNEFSSSGLGRAYSGEGAIADDAGNVSRAPALITMFDRPTFSAGAVYIDPDVNISGTSPSGRSLKADNIAPTAWVPNMHFVAPINDQFGWGASITSNYGLATEFNDTYAGGSVGGTTDLETMNLNLSGAYRLNNAWSFGLGFNAVYARAKIERFAGDLGQLVAGQIMQSPAGQTQQGQALAATANGIDSNTKTAHLNGNQWGFGWNAGILYELDKNNRYALTYRSEVKIDFKGNYSSDLNRAFNNYGLPIPTATGGATQSGYLTLNLPEMWEVSGYNRVDPQWAIHYSLAYTSWSQFQQLKATSTSGDTLFQKHEGFKDAYRIALGTTYYYDDNWTFRTGIAFDDSPVPAQNRSISIPDQDRFWLSAGTTYAFNKDASVDVGVSYMHGQSVKINEGPYQFESEGKAWLFGTNFNYAFHHHHHH | soluble
17 | AGGGYWHTSGREILDANNVPVRIAGINWFGFETCNYVVHGLWSRDYRSMLDQIKSLGYNTIRLPYSDDILKPGTMPNSINFYQMNQDLQGLTSLQVMDKIVAYAGQIGLRIILDRHRPDCSGQSALWYTSSVSEATWISDLQALAQRYKGNPTVVGFDLHNEPHDPACWGCGDPSIDWRLAAERAGNAVLSVNPNLLIFVEGVQSYNGDSYWWGGNLQGAGQYPVVLNVPNRLVYSAHDYATSVGPQTWFSDPTFPNNMPGIWNKNWGYLFNQNIAPVWLGEFGTTLQSTTDQTWLKTLVQYLRPTAQYGADSFQWTFWSWNPDSGDTGGILKDDWQTVDTDKDGYLAPIKSSIFDPV | soluble
18 | AGYPPASPSNLSCLMHLTTNSLVCQWEPGPETHLPTSFILKSFRSRADCQYQGDTIPDCVAKKRQNNCSIPRKNLLLYQYMAIWVQAENMLGSSESPKLCLDPMDVVKLEPPMLQALDIGPDVVSHQPGCLWLSWKPWKPSEYMEQECELRYQPQLKGANWTLVFHLPSSKDQFELCGLHQAPVYTLQMRCIRSSLPGFWSPWSPGLQLRPTMKA | soluble
19 | AHHHHHHGSDLERALNAFHSMKVNQLTPPCSQMPIVEEDSPIIDVLKLLRTRHHVWVVNNRKDMKLVGIIRYLDIIDIFLPPKGARLGAVSSVFKSILSGAEKAGDIMERNFLTINEDATVLEALEKMKRYKIQILALIDEEGKLKGEISLRILINEFLRLIRVGGG | soluble
20 | AHHHHHHGSGRIISIVSGKGGTGKTTVTANLSVALGDRGRKVLAVDGDLTMANLSLVLGVDDPDVTLHDVLAGEANVEDAIYMTQFDNVYVLPGAVDWEHVLKADPRKLPEVIKSLKDKFDFILIDCPAGLQLDAMSAMLSGEEALLVTNPEISCLTDTMKVGIVLKKAGLAILGFVLNRYGRSDRDIPPEAAEDVMEVPLLAVIPEDPAIREGTLEGIPAVKYKPESKGAKAFVKLAEEIEKLAGLKARVMY | not soluble
21 | AHHHHHHGSIDAHAHIEFFKKNQEEIIEEAKRKLRGVVDSITEYRKTHVWKSWELLKDYFDFIFPTLGYHPNEARRGNWEKVRKVEDFILKHQKEIFGIGEIGLDYYHAKTKAERDAQREIFVHFLELAKELNLPVVIHAREAEKEALEIINRYDIPSYFHSYTGSVEVAREIVDGGHILGISTGIVFIPEVREVAKNIEIEYLVVETDAPYMSPYKGIRNKPIFVEVAIEELAKIKGMDKTEVEAVTEVNTIKFFSLPL | soluble
22 | AHHHHHHGSIHIIEEYFRPYPARKKVAQILWEAGMSVKDGKIYVKGVEVPISGIAQVAGVNRKIVYHTIEYIESKPALKLLFENLSPRTSLISIAPLMGWEVLELTIQKGKYEKTLAKVLESLAERRVRVIEIFGSNPYEEKSKAFLVVEGIVPFEVISSLREEGSLERIVIHTPEKEKERMICPKCEIKYCPRKIFISTR | soluble
23 | AHHHHHHGSILKMLESRGITLERMVETALELYIGEKRDAIKEKVRELMLHYLEDINVQALLMAALMLEEKFNVEGDPVNLVADELIGIDIAEYIGGKMALFNFFYYDTKKPGILRELPPFLDDAIGGFIAGCMTLLFHIPQKNSNGGNL | soluble
24 | AHHHHHHGSKRVWLVIPDTNFLFIPGQFGVDIISELERILDVNYKIVIPNIVLEELKTILREGKLRGKDLIAARMALKLAERFPTIYVGDFMSKTTDELIYEFAISNDNVIVCTNDKQLRKRLREAGVPVVFLRQKKKLELEGMLG | soluble
25 | AHHHHHHGSLKLVENVVGRVSEEENKVPEVQVPQSSIDEELKKIVEQIKARIYVVGVGGAGCNTVNRMMEVGVTGAKIIAVNTDAQDLLKVKAHQKILIGKELTRGLGAGNDPKIGEEAAKESERELRDALEGADMVFITCGLGGGTGTGAAPVIAEIARKMGALTVSVVTLPFTMEGIRRAKNAEYGLKRLVKYSDTVIVIPNDKLLEVAPKLPIQMAFKVADEILVQAVKGITELITKPGLVNLDFNDVRAVMKDGGVAMIGIGESDSEKRALEAAEQALNSPLLDVDISGATGALIHISGADVKLEEAQQIIEYVTRNVDPKAQVIWGIQLEPELEKTIRVMVVITGVTSRYITPEEETPLETPEESPSIEISIPEL | soluble
26 | AHHHHHHGSPIRKVMKANEAAAWAAKLAKPKVIAAFPITPSTLIPEKISEFVANGELDAEFIKVESEHSAISACVGAAAAGVRTFTATASQGLALMHEILFIAAGMRLPIVMAIGNRALSAPINIWNDWQDTISQRDTGWMQFYAENNQEALDLILIAYKVAEDERVLLPAMVGFDAFILTHTVEPVEIPDQEVVDEFLGEYEPKHAYIDPARPITQGSLAFPAHYMESRYTVWEAMERAKKVIDEAFAEFEKKFGRKYQKIEEYKTEDADIIFVTMGSLAGTLKEWIDKKREEGYKVGAAKITVYRPFPVEEIRELAKKAKVLAFLEKNITIGLYGAVFTDASAALINESEKPLMVDFIVGLGGRDVTFNQLDEALEIAEKALKEGKVENPINWIGLRWELVK | soluble

From the DeepSol protein solubility set
